Source: US20020081718, “POLYPEPTIDE, AND A DNA SEQUENCE TO WHICH A PROTEIN CONTAINING THE POLYPETIDE BINDS” (published 2002)

T1: GCM N243 (MBP fusion) (Drosophila, UniProt Q27403 SEQ:1-243)
T1 chain: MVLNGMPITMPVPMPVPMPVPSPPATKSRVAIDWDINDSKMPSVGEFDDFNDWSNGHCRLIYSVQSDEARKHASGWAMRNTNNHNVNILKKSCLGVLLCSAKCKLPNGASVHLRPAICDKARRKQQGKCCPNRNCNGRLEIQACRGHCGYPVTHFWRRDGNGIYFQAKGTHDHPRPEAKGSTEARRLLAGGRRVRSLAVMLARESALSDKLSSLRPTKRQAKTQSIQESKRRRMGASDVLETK

T2: hGCMa N-terminal fragment (Homo sapiens, UniProt Q9NP62 SEQ:1-171)
T2 chain: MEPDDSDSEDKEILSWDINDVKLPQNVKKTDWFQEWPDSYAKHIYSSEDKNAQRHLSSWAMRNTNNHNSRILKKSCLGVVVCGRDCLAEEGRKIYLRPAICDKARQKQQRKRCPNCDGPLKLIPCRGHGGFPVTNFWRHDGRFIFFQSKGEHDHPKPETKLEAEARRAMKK


What was measured:
GCM N243 (MBP fusion) [1] = molecular target: T1, GCM N243 (MBP fusion); assay: competition; dose-dependent competition of labeled 200 bp repo fragment, 1-1000x; conditions: tags: MBP fusion (pMAL, E. coli)
[2] = molecular target: T2, hGCMa N-terminal fragment; assay: competition; results stated similar to those of GCM
Description: Gel shift assays and competition assays were carried out in the same manner as above by using proteins obtained by causing expression of DNA fragments of up to the 171-st amino acid residue of hGCMa, giving results similar to those of GCM.

GCM N243 (MBP fusion) [3] = molecular target: T1, GCM N243 (MBP fusion); assay: competition; no competition; conditions: tags: MBP fusion (pMAL, E. coli)

Binder | binding result (GCM N243 (MBP fusion) [1]) | binding result [2] | binding result (GCM N243 (MBP fusion) [3])
competitor a with GCM site (dsDNA) DNA 1: TGTGTGGAATTGTGAGCGGACCTACCCGCATTACGGGTTTTCCCAGTCACGACG DNA 2: CGTCGTGACTGGGAAAACCCGTAATGCGGGTAGGTCCGCTCACAATTCCACACA | binds | binds | 
competitor b without GCM site (dsDNA) DNA 1: TGTGTGGAATTGTGAGCGGATATACTAATTTGTTAGGTTTTCCCAGTCACGACG DNA 2: CGTCGTGACTGGGAAAACCTAACAAATTAGTATATCCGCTCACAATTCCACACA |  | no binding | no binding
